{"source": "paper PMC5607963", "binders": {"B1": {"name": "αE-catenin homodimer, P26231 1-906 (natural protein)", "chain": "MTAVHAGNINFKWDPKSLEIRTLAVERLLEPLVTQVTTLVNTNSKGPSNKKRGRSKKAHVLAASVEQATENFLEKGDKIAKESQFLKEELVVAVEDVRKQGDLMKSAAGEFADDPCSSVKRGNMVRAARALLSAVTRLLILADMADVYKLLVQLKVVEDGILKLRNAGNEQDLGIQYKALKPEVDKLNIMAAKRQQELKDVGNRDQMAAARGILQKNVPILYTASQACLQHPDVAAYKANRDLIYKQLQQAVTGISNAAQATASDDAAQHQGGSGGELAYALNNFDKQIIVDPLSFSEERFRPSLEERLESIISGAALMADSSCTRDDRRERIVAECNAVRQALQDLLSEYMGNAGRKERSDALNSAIDKMTKKTRDLRRQLRKAVMDHVSDSFLETNVPLLVLIEAAKNGNEKEVKEYAQVFREHANKLIEVANLACSISNNEEGVKLVRMSASQLEALCPQVINAALALAAKPQSKLAQENMDLFKEQWEKQVRVLTDAVDDITSIDDFLAVSENHILEDVNKCVIALQEKDVDGLDRTAGAIRGRAARVIHVVTSEMDNYEPGVYTEKVLEATKLLSNTVMPRFTEQVEAAVEALSSDPAQPMDENEFIDASRLVYDGIRDIRKAVLMIRTPEELDDSDFETEDFDVRSRTSVQTEDDQLIAGQSARAIMAQLPQEQKAKIAEQVASFQEEKSKLDAEVSKWDDSGNDIIVLAKQMCMIMMEMTDFTRGKGPLKNTSDVISAAKKIAEAGSRMDKLGRTIADHCPDSACKQDLLAYLQRIALYCHQLNICSKVKAEVQNLGGELVVSGVDSAMSLIQAAKNLMNAVVQTVKASYVASTKYQKSQGMASLNLPAVSWKMKAPEKKPLVKREKQDETQTKIKRASQKKHVNPVQALSEFKAMDSI"}}, "target": "F-actin polymerized from rabbit skeletal muscle G-actin, stabilized with phalloidin (rabbit), P68135", "assay": "co-sedimentation", "settings": "remark: other sources report otherwise", "data": [{"binder": "B1", "values": [{"measurement": "Kd", "value": 2.9, "unit": "µM"}]}]}
